Changes are numbered by the printed parent chain.

The labels stand for the following.
B1: 2126-Hu-H22 (antibody, IgG1, V domains shown)
VH: QVQLVQSGGELKKPGASVKVSCKASGYTFTDYSMHWVRQAPGQGLEWMGWINTETGEPTYADDFKGRFVFSLDTSVSTAYLQISSLKAEDTAVYFCVRVGRYDYAMDYWGQGTTVTVSS
VL: DIQMTQSPSSLSASVGDRVTITCKASQDVYTAVAWYQQKPGKAPKLLINSASYRYTGVPSRFSGSGSGTDFTLTISSLQPEDFATYYCQQHYSTPPTFGGGTKVEIK
notes: IgG1/Cκ
B2: 2126-Hu-H39 (antibody, IgG1, V domains shown)
VH: B1 VH with G9S, L72V
VL: B1 VL
notes: IgG1/Cκ
B3: 2126-Hu-H36 (antibody, IgG1, V domains shown)
VH: B1 VH with G9S, V69T
VL: B1 VL
notes: IgG1/Cκ
B4: 2126-Hu-H48 (antibody, IgG1, name in Kabat numbering, V domains shown)
VH: B1 VH with G9S, R101K
VL: B1 VL
notes: IgG1/Cκ
B5: 2126-Hu-H23 (antibody, IgG1, V domains shown)
VH: B1 VH with G9S, V18L
VL: B1 VL
notes: IgG1/Cκ
B6: 2126-Hu-H55 (antibody, IgG1, name in Kabat numbering, V domains shown)
VH: B1 VH with G9S, D103A
VL: B1 VL
notes: IgG1/Cκ
B7: 2126-Hu-H45 (antibody, IgG1, V domains shown)
VH: B1 VH with G9S, I83M
VL: B1 VL
notes: IgG1/Cκ
B8: 2126-Hu-H56 (antibody, IgG1, name in Kabat numbering, V domains shown)
VH: B1 VH with G9S, D103E
VL: B1 VL
notes: IgG1/Cκ
B9: 2126-Hu-H42 (antibody, IgG1, V domains shown)
VH: B1 VH with G9S, V76K
VL: B1 VL
notes: IgG1/Cκ
B10: 2126-Hu-H35 (antibody, IgG1, V domains shown)
VH: B1 VH with G9S, F64V
VL: B1 VL
notes: IgG1/Cκ
B11: 2126-Hu-H27 (antibody, IgG1, V domains shown)
VH: B1 VH with G9S, E54G
VL: B1 VL
notes: IgG1/Cκ
B12: 2126-Hu-H44 (antibody, IgG1, V domains shown)
VH: B1 VH with G9S, I83L
VL: B1 VL
notes: IgG1/Cκ
B13: 2126-Hu-H47 (antibody, IgG1, name in Kabat numbering, V domains shown)
VH: B1 VH with G9S, R101F
VL: B1 VL
notes: IgG1/Cκ
B14: 2126-Hu-H30 (antibody, IgG1, name in Kabat numbering, V domains shown)
VH: B1 VH with G9S, E57N
VL: B1 VL
notes: IgG1/Cκ
B15: 2126-Hu-H46 (antibody, IgG1, V domains shown)
VH: B1 VH with G9S, F95Y
VL: B1 VL
notes: IgG1/Cκ
B16: 2126-Hu-H37 (antibody, IgG1, V domains shown)
VH: B1 VH with G9S, V69S
VL: B1 VL
notes: IgG1/Cκ
B17: 2126-Hu-H29 (antibody, IgG1, V domains shown)
VH: B1 VH with G9S, E54I
VL: B1 VL
notes: IgG1/Cκ
B18: 2126-Hu-H49 (antibody, IgG1, name in Kabat numbering, V domains shown)
VH: B1 VH with G9S, R101N
VL: B1 VL
notes: IgG1/Cκ
B19: 2126-Hu-H26 (antibody, IgG1, name in Kabat numbering, V domains shown)
VH: B1 VH with G9S, E54D
VL: B1 VL
notes: IgG1/Cκ
B20: 2126-Hu-H31 (antibody, IgG1, V domains shown)
VH: B1 VH with G9S, E57D
VL: B1 VL
notes: IgG1/Cκ
B21: 2126-Hu-H24 (antibody, IgG1, V domains shown)
VH: B1 VH with G9S, S33A
VL: B1 VL
notes: IgG1/Cκ
B22: 2126-Hu-H53 (antibody, IgG1, name in Kabat numbering, V domains shown)
VH: B1 VH with G9S, Y102N
VL: B1 VL
notes: IgG1/Cκ
B23: 2126-Hu-H50 (antibody, IgG1, V domains shown)
VH: B1 VH with G9S, R101Y
VL: B1 VL
notes: IgG1/Cκ
B24: 2126-Hu-H33 (antibody, IgG1, V domains shown)
VH: B1 VH with G9S, D63K
VL: B1 VL
notes: IgG1/Cκ
B25: 2126-Hu-H40 (antibody, IgG1, V domains shown)
VH: B1 VH with G9S, L72R
VL: B1 VL
notes: IgG1/Cκ
B26: 2126-Hu-H54 (antibody, IgG1, V domains shown)
VH: B1 VH with G9S, Y102G
VL: B1 VL
notes: IgG1/Cκ
B27: 2126-Hu-H38 (antibody, IgG1, V domains shown)
VH: B1 VH with G9S, F70I
VL: B1 VL
notes: IgG1/Cκ
B28: 2126-Hu-H34 (antibody, IgG1, V domains shown)
VH: B1 VH with G9S, D63N
VL: B1 VL
notes: IgG1/Cκ
B29: 2126-Hu-H32 (antibody, IgG1, V domains shown)
VH: B1 VH with G9S, E57S
VL: B1 VL
notes: IgG1/Cκ
B30: 2126-Hu-H52 (antibody, IgG1, name in Kabat numbering, V domains shown)
VH: B1 VH with G9S, Y102S
VL: B1 VL
notes: IgG1/Cκ
B31: 2126-Hu-H25 (antibody, IgG1, V domains shown)
VH: B1 VH with G9S, E54N
VL: B1 VL
notes: IgG1/Cκ
B32: 2126-Hu-H28 (antibody, IgG1, V domains shown)
VH: B1 VH with G9S, E54Y
VL: B1 VL
notes: IgG1/Cκ
B33: 2126-Hu-H51 (antibody, IgG1, name in Kabat numbering, V domains shown)
VH: B1 VH with G9S, Y102F
VL: B1 VL
notes: IgG1/Cκ
B34: 2126-Hu-H43 (antibody, IgG1, V domains shown)
VH: B1 VH with G9S, V76T
VL: B1 VL
notes: IgG1/Cκ

The target in this assay is T1, recombinant human HER2 extracellular domain protein (human, UniProt P04626 23-652).
T1 construct: range 23-652; Range is printed for the immunogen/panning protein; also called ErbB2; recombinant HER2 protein
Kind of assay: BLI, Protein A capture.
For B1, the Kd came out at 5.38 nM, the koff stood at 0.000543 s⁻¹ and the kon came to 101000 M⁻¹ s⁻¹.

For B2, the dissociation constant Kd was 4.87 nM, the koff worked out at 0.000509 s⁻¹ and the kon turned out to be 105000 M⁻¹ s⁻¹.

Consider B3, for which the equilibrium dissociation constant (Kd) came out at 5.3 nM, the koff was 0.000558 s⁻¹ and the on-rate (kon) worked out at 105000 M⁻¹ s⁻¹.

On to B4, for which the Kd was 34.1 nM, the koff was 0.00392 s⁻¹ and the kon amounted to 115000 M⁻¹ s⁻¹.

For the molecule B5, the Kd turned out to be 5.9 nM, the koff came to 0.000623 s⁻¹ and the kon is 106000 M⁻¹ s⁻¹.

For the molecule B6, the equilibrium dissociation constant (Kd) worked out at 33.7 nM, the off-rate (koff) came out at 0.00452 s⁻¹ and the kon was found to be 134000 M⁻¹ s⁻¹.

For the molecule B7, the Kd came out at 5.76 nM, the dissociation rate constant (koff) was found to be 0.000598 s⁻¹ and the on-rate (kon) amounted to 104000 M⁻¹ s⁻¹.

For the molecule B8, the dissociation constant Kd was determined as 36.2 nM, the koff is 0.00476 s⁻¹ and the kon stood at 131000 M⁻¹ s⁻¹.

B9: the dissociation constant (Kd) is 5.11 nM, the koff came to 0.000546 s⁻¹ and the association rate constant (kon) was 107000 M⁻¹ s⁻¹.

As to B10, the Kd worked out at 5.87 nM, the koff was determined as 0.000603 s⁻¹ and the kon turned out to be 103000 M⁻¹ s⁻¹.

For the molecule B11, the Kd came to 1.67 nM, the koff was found to be 0.000164 s⁻¹ and the association rate constant (kon) was found to be 97900 M⁻¹ s⁻¹.

For the molecule B12, the Kd was 5.3 nM, the off-rate (koff) was 0.000562 s⁻¹ and the on-rate (kon) was 106000 M⁻¹ s⁻¹.

In the case of B13, the Kd was 17.8 nM, the off-rate constant (koff) worked out at 0.00362 s⁻¹ and the on-rate constant (kon) is 204000 M⁻¹ s⁻¹.

As for B14, the Kd worked out at 13.1 nM, the koff was determined as 0.0015 s⁻¹ and the on-rate constant (kon) is 115000 M⁻¹ s⁻¹.

As for B15, the Kd was determined as 5.7 nM, the koff is 0.000597 s⁻¹ and the kon worked out at 105000 M⁻¹ s⁻¹.

Consider B16, for which the Kd stood at 5.31 nM, the koff came out at 0.000545 s⁻¹ and the on-rate constant (kon) stood at 103000 M⁻¹ s⁻¹.

For B17, the dissociation constant Kd was 2.61 nM, the koff was found to be 0.000246 s⁻¹ and the kon amounted to 94300 M⁻¹ s⁻¹.

For the molecule B18, the Kd is 35.9 nM, the dissociation rate constant (koff) is 0.00533 s⁻¹ and the kon was 149000 M⁻¹ s⁻¹.

For B19, the Kd amounted to 11.1 nM, the koff stood at 0.00119 s⁻¹ and the kon was found to be 107000 M⁻¹ s⁻¹.

Take B20: the Kd is 8.81 nM, the off-rate (koff) stood at 0.000942 s⁻¹ and the association rate constant (kon) was found to be 107000 M⁻¹ s⁻¹.

As to B21, the Kd worked out at 7.7 nM, the dissociation rate constant (koff) turned out to be 0.00083 s⁻¹ and the kon stood at 108000 M⁻¹ s⁻¹.

Regarding B22, the Kd was 46.9 nM, the koff amounted to 0.00475 s⁻¹ and the on-rate (kon) stood at 101000 M⁻¹ s⁻¹.

B23: the Kd was 8 nM, the koff stood at 0.000902 s⁻¹ and the kon came out at 113000 M⁻¹ s⁻¹.

In the case of B24, the equilibrium dissociation constant (Kd) was determined as 2.83 nM, the koff was 0.00031 s⁻¹ and the association rate constant (kon) amounted to 109000 M⁻¹ s⁻¹.

In the case of B25, the Kd turned out to be 1.92 nM, the koff worked out at 0.0002 s⁻¹ and the kon came out at 104000 M⁻¹ s⁻¹.

As for B26, the Kd is 7.96 nM, the dissociation rate constant (koff) was 0.000936 s⁻¹ and the kon came to 118000 M⁻¹ s⁻¹.

Consider B27, for which the dissociation constant (Kd) turned out to be 8.4 nM, the koff is 0.000874 s⁻¹ and the kon was 104000 M⁻¹ s⁻¹.

For B28, the Kd was found to be 4.31 nM, the koff came out at 0.000454 s⁻¹ and the kon amounted to 105000 M⁻¹ s⁻¹.

Consider B29, for which the Kd stood at 8.96 nM, the koff stood at 0.000998 s⁻¹ and the kon was 111000 M⁻¹ s⁻¹.

B30: the dissociation constant (Kd) was 19.3 nM, the off-rate (koff) is 0.00292 s⁻¹ and the kon worked out at 152000 M⁻¹ s⁻¹.

With B31, the Kd is 7.57 nM, the koff was found to be 0.000749 s⁻¹ and the on-rate (kon) worked out at 99000 M⁻¹ s⁻¹.

For the molecule B32, the dissociation constant Kd amounted to 3.08 nM, the koff was 0.00035 s⁻¹ and the kon stood at 114000 M⁻¹ s⁻¹.

For B33, the dissociation constant (Kd) amounted to 23.8 nM, the koff stood at 0.00244 s⁻¹ and the kon amounted to 103000 M⁻¹ s⁻¹.

For B34, the Kd amounted to 7.2 nM and the association rate constant (kon) was determined as 107000 M⁻¹ s⁻¹.
